Measurements: publication PMC6778059 (Nature cell biology, 2019)

T1: SNX5 PX domain (UniProt Q9Y5X3 25-172)
T1 sequence: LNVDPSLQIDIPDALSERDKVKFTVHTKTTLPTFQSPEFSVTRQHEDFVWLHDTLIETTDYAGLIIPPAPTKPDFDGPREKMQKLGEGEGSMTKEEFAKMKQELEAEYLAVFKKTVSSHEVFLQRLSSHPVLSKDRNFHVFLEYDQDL

T2: SNX6 PX domain (UniProt Q9UNH7 26-173)
T2 sequence: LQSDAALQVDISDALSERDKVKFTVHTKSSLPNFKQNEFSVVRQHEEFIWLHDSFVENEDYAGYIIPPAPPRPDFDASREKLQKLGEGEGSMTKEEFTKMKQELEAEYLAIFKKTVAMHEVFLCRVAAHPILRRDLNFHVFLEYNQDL

B1: CI-MPR peptide (residues 2347-2375) (peptide)
peptide: SNVSYKYSKVNKEEETDENETEWLMEEIQ
B2: CI-MPR peptide L2370D (peptide)
peptide: SNVSYKYSKVNKEEETDENETEWDMEEIQ
B3: CI-MPR peptide M2371D (peptide)
peptide: SNVSYKYSKVNKEEETDENETEWLDEEIQ
B4: SEMA4C peptide (residues 731-755) (peptide)
peptide: WDPVGYYYSDGSLKIVPGHARCQPG
B5: IGF1R peptide (residues 1275-1302) (peptide)
peptide: REVSFYYSEENKLPEPEELDLEPENMES
B6: CI-MPR peptide WLM-AAA (peptide)
peptide: SNVSYKYSKVNKEEETDENETEAAAEEIQ

How the values were obtained:
Test in all cases: ITC
SNX32 PX domain = molecular target: SNX32 PX domain
SNX5 PX domain = molecular target: T1, SNX5 PX domain
SNX6 PX domain = molecular target: T2, SNX6 PX domain

Molecule | Kd (SNX5 PX domain) [µM] | binding result (SNX5 PX domain) | also measured
CI-MPR peptide (residues 2347-2375) (from UniProt P11717 2347-2375) |  |  | Kd (SNX32 PX domain): 12 µM
B1 | ~25 |  | Kd (SNX6 PX domain): 24 µM
B2 |  | binds | 
B3 |  | binds | 
B4 | 26 |  | 
B5 | 15 |  | 
B6 |  | binds | 
